Measured values as given in article PMC2563962 (Structure (London, England : 1993), 2008).

Target: the molecule itself
Experiment: SEC

B1: SusD (residues 26-551) of Bacteroides thetaiotaomicron (domain or fragment, Bacteroides thetaiotaomicron ATCC 29148, UniProt Q8A1G2 26-551, looked up)
chain: INDLDISPIDPQTGGSFDQQGVFVKGYAMLGVTGQKGIDGSPDLDGQDEGESGFYRTTFNCNELPTDECLWAWQENQDIPQLTSISWSPSSQRTEWVYVRLGYDITQYNFFLDQTEGMTDAETLRQRAEIRFLRALHYWYFLDLFGKAPFKEHFSNDLPVEKKGTELYTYIQNELNEIEADMYEPRQAPFGRADKAANWLLRARLYLNAGVYTGQTDYAKAEEYASKVIGSAYKLCTNYSELFMADNDENENAMQEIILPIRQDGVKTRNYGGSTYLVCGTRVAGMPRMGTTNGWSCIFARAAMVQKFFSNLEDVPMLPADVEIPTKGLDTDEQIDAFDAEHGIRTEDMIKAAGDDRALLYSGVGGGRRKIQTDAISGFTDGLSIVKWQNYRSDGKPVSHATYPDTDIPLFRLAEAYLTRAEAIFRQGGDATGDINELRKRANCTRKVQTVTEQELIDEWAREFYLEGRRRSDLVRFGMFTTNKYLWDWKGGAMNGTSVASYYNKYPIPVSDINNNRNMSQNEGYK
stoichiometry N: 2
